The chains are these.
B1: Cell division control protein 6 homolog (Homo sapiens), Q99741 (parent)
chain: MPQTRSQAQATISFPKRKLSRALNKAKNSSDAKLEPTNVQTVTCSPRVKALPLSPRKRLGDDNLCNTPHLPPCSPPKQGKKENGPPHSHTLKGRRLVFDNQLTIKSPSKRELAKVHQNKILSSVRKSQEITTNSEQRCPLKKESACVRLFKQEGTCYQQAKLVLNTAVPDRLPAREREMDVIRNFLREHICGKKAGSLYLSGAPGTGKTACLSRILQDLKKELKGFKTIMLNCMSLRTAQAVFPAIAQEICQEEVSRPAGKDMMRKLEKHMTAEKGPMIVLVLDEMDQLDSKGQDVLYTLFEWPWLSNSHLVLIGIANTLDLTDRILPRLQAREKCKPQLLNFPPYTRNQIVTILQDRLNQVSRDQVLDNAAVQFCARKVSAVSGDVRKALDVCRRAIEIVESDVKSQTILKPLSECKSPSEPLIPKRVGLIHISQVISEVDGNRMTLSQEGAQDSFPLQQKILVCSLMLLIRQLKIKEVTLGKLYEAYSKVCRKQQVAAVDQSECLSLSGLLEARGILGLKRNKETRLTKVFFKIEEKEIEHALKDKALIGNILATGLP

In one assay the parent is B1. The note with it: with cdk1_human CDK1, P06493.
Sequence of cdk1_human CDK1, P06493 (P06493 whole entry, looked up): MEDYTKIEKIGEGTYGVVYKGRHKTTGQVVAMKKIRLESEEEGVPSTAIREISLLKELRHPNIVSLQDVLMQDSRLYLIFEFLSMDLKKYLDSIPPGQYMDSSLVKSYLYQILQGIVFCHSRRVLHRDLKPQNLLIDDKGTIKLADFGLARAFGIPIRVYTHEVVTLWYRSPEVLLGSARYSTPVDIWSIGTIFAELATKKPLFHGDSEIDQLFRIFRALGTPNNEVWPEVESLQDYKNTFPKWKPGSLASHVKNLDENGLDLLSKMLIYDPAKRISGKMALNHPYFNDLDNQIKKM
On to T37V, for which the “effect of a mutation on the interaction” value is recorded as “disrupting interaction”.

Variants of B1 are the subject of the next assay. The settings on record: with plk1_human PLK1, P53350.
Sequence of plk1_human PLK1, P53350 (P53350 whole entry): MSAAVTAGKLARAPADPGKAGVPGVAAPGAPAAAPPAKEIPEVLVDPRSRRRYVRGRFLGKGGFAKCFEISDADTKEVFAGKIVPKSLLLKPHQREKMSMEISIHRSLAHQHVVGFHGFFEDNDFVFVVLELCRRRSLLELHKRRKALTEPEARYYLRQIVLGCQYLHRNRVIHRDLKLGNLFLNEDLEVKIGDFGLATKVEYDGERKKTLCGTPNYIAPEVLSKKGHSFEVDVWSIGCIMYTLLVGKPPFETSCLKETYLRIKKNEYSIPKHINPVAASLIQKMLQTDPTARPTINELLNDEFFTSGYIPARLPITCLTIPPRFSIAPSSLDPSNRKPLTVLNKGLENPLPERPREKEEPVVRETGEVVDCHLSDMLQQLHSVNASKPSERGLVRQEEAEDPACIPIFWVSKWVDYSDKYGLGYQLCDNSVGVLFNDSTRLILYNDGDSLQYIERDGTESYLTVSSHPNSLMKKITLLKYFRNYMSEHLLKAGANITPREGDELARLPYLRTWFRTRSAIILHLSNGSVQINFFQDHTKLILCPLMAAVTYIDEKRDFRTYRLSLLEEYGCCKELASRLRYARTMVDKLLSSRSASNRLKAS
As for T37V, the “effect of a mutation on the interaction” value is listed as “disrupting interaction”.

The values above are taken from IntAct's records for PubMed 21041660.
